Source: patent publication US20210324063A1 (KODIAK SCIENCES, published 2021)

B1: OG1950 (antibody, IgG1)
heavy: EVQLVESGGGLVQPGGSLRLSCAASGYDFTHYGMNWVRQAPGKGLEWVGWINTYTGEPTYAADFKRRFTFSLDTSKSTAYLQMNSLRAEDTAVYYCAKYPYYYGTSHWYFDVWGQGTLVTVSSASTKGPSVFPLAPSSKSTSGGTAALGCLVKDYFPEPVTVSWNSGALTSGVHTFPAVLQSSGLYSLSSVVTVPSSSLGTQTYICNVNHKPSNTKVDKKVEPKSCDKTHTCPPCPAPEAAGAPSVFLFPPKPKDTLMISRTPEVTCVVVDVSHEDPEVKFNWYVDGVEVHNAKTKPREEQYNSTYRVVSVLTVLHQDWLNGKEYKCKVSNKALPAPIEKTISKAKGQPREPQVYTLPPSREEMTKNQVSLTCLVKGFYPSDIAVEWESNGQPENNYKTTPPVLDSDGSFFLYSKLTVDKSRWQQGNVFSCSVMHEALHNHYTQKSLSCSPGK
light: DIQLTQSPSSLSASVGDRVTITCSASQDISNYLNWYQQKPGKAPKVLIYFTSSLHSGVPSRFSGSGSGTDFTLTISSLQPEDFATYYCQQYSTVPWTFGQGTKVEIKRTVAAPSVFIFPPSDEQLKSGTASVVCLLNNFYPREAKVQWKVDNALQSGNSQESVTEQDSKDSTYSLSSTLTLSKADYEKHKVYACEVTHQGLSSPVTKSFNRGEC
notes: also called anti-VEGF-A antibody with an L443C (EU numbering) mutation; unconjugated antibody
B2: Avastin (bevacizumab) (antibody, human IgG1, kappa)
heavy: not shown
light: not shown
notes: Commercial product

Experiments:
[1] = target: T1, Purified human C1q (human, UniProt P02745 23-245; P02746 28-253; P02747 29-245); experiment: ELISA: antibody coated on the plate in 1:2 titration, purified human C1q at 5 ug/mL, HRP anti-human C1q detection
T1 construct: also called human complement protein C1q
Procedure: Complement engagement liabilities were assessed by C1q ELISA binding. The antibody panel was titrated 1:2 from a top concentration of 10 ug/mL in 1×PBS for overnight coating at 4 C. Plates were then blocked After a 2 hour blocking step in 1% BSA. Purified human C1q was then applied at 5 ug/mL in 1% BSA for 2 hours at room temperature followed by detection with HRP-conjugated anti-human C1q antibody and TMB development.

[2] = target: T2, Histidine-tagged FcγRI (UniProt P12314 16-288, limits assumed); experiment: SPR (BIAcore T200), his-tagged receptor captured by anti-his antibody on a CM5 chip, antibody as analyte, single-cycle kinetics, 25 C
T2 construct: also called Fc gamma receptor I; not shown: histidine tag
Procedure: (§1) Binding kinetics experiments were performed at 25° C. using a BIAcore T200. An anti-his antibody was immobilized on a CM5 chip. Histidine-tagged FcγRI and FcγRIIIa at a concentration of 0.5 μg/mL prepared in HBS-EP buffer (0.01M HEPES pH7.4, 0.15M NaCl, 3 mM EDTA, 0.005% Tween-20) were injected independently for 60-s using a flow rate of 5 μL/min in the active flow cell only. […] Antibody concentrations in the range of 0.48 to 300 nM were used for FcγRI and 7.8 nM to 2000 nM for FcγRIIIa. Following each run, flow cells were regenerated with a 60 s injection of 10 mM glycine pH 1.7 using a flow-rate of […]. Data was double referenced, using subtraction of both reference flow cell and blank cycles. Analysis was performed using BIA evaluation software.

[3] = target: T3, Histidine-tagged FcγRIIIa (UniProt P08637 17-208, limits assumed); experiment: as above
T3 construct: also called Fc gamma receptor IIIa; not shown: histidine tag
Procedure: as §1

T1 sequence (P02745 23-245 limits assumed, chain 1 of 3): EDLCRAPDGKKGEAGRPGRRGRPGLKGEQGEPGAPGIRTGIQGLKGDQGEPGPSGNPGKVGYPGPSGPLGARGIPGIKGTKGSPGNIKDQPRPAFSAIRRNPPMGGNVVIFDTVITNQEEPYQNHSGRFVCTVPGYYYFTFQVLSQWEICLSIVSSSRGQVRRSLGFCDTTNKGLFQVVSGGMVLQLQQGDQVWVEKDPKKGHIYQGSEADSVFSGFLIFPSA
T1 sequence (P02746 28-253 limits assumed, chain 2 of 3): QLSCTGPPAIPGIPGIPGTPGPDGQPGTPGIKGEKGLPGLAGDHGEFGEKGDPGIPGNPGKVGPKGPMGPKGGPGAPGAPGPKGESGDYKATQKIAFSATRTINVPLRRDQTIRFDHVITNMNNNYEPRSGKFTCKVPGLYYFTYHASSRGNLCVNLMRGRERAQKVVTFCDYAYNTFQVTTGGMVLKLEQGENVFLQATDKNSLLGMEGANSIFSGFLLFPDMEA
T1 sequence (P02747 29-245 limits assumed, chain 3 of 3): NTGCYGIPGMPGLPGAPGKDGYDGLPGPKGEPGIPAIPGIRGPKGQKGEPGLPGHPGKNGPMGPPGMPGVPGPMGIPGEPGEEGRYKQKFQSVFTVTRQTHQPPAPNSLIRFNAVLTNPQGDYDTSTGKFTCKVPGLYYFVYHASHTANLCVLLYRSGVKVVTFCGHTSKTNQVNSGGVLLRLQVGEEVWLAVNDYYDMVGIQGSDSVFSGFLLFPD
T3 sequence (P08637 17-208 limits assumed): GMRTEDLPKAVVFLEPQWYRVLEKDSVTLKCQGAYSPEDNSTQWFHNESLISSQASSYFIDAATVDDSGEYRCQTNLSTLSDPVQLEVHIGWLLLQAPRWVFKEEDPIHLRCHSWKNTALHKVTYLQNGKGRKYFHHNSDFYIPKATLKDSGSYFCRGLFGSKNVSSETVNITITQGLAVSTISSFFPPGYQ
T2 sequence (P12314 16-288 limits assumed): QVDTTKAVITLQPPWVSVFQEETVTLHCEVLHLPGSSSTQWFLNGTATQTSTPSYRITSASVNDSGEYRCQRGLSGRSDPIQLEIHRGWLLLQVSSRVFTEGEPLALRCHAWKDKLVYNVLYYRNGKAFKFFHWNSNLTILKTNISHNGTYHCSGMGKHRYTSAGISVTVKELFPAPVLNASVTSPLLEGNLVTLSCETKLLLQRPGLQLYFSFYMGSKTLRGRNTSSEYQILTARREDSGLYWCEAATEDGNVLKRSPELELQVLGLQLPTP

binding result [1] | binding result [2] | binding result [3] | Binder
binds | no binding (tested: 0.48 to 300 nM) | no binding (tested: 7.8 nM to 2000 nM) | B1
binds |  |  | B2
